The values that follow come from patent US20170015738A1.

The term IC50 denotes the concentration at which inhibition is half-maximal.

The target in experiment [1] is pathological hyperphosphorylated tau from human Alzheimer's disease brain, sarkosyl-insoluble P3 fraction (human) (UniProt P10636). Put plainly: MSD, AD-P3 coated plate (FIG. 34); C10-2 300 ng/ml + PBS/0.1% BSA (no competitor).
Experiment [2] shares this target. Put plainly: MSD, AD-P3 coated plate (FIG. 34); C10-2 1000 ng/ml + 10 µM tau peptide as competitor.
Experiment [3] has the same target. The experiment can be described thus: MSD, AD-P3 coated plate (FIG. 34); C10-2 3 ng/ml + 10 µM tau peptide as competitor.
The target is the same in experiment [4]. Put plainly: MSD, AD-P3 coated plate (FIG. 34); C10-2 10000 ng/ml + 10 µM tau peptide as competitor.
The target of experiment [5] is hyperphosphorylated tau phosphorylated at serine 396 in human Alzheimer brain (extracts and sections) (human) (UniProt P10636). The experiment can be described thus: immunodepletion of Alzheimer brain extract with antibody on Protein G Dynabeads; western blot. On the technique in general: In western blotting, separated proteins are transferred to a membrane and probed.

For experiment [6], the target named is pathological hyperphosphorylated tau from human Alzheimer's disease brain, sarkosyl-insoluble P3 fraction (human) (UniProt P10636). The experiment can be described thus: fluid phase MSD ELISA: inhibition of tau antigen capture. Background: In an ELISA, binding on a coated surface is turned into a signal by an enzyme label.
The target is the same in experiment [7]. Put plainly: fluid phase MSD ELISA: inhibition of AD-P3 tau antigen capture.
The target is the same in experiment [8]. Put plainly: MSD, AD-P3 coated plate (FIG. 34); C10-2 30 ng/ml + 10 µM tau peptide as competitor.
Experiment [9] has the same target. The experiment can be described thus: MSD, AD-P3 coated plate (FIG. 34); C10-2 10 ng/ml + 10 µM tau peptide as competitor.
Experiment [10] shares this target. The experiment can be described thus: fluid phase inhibition of Ptau antigen capture in C10-2 coated plate (comparison with mD1.2).
The target is the same in experiment [11]. The experiment can be described thus: MSD, AD-P3 coated plate (FIG. 34); C10-2 10 ng/ml + PBS/0.1% BSA (no competitor).
Experiment [12] shares this target. The experiment can be described thus: MSD, AD-P3 coated plate (FIG. 34); C10-2 10000 ng/ml + PBS/0.1% BSA (no competitor).
Experiment [13] has the same target. The experiment can be described thus: MSD ELISA on immobilised P3 tau; ratio of binding to AD over healthy control at saturation.
Experiment [14] has the same target. Put plainly: MSD, AD-P3 coated plate (FIG. 34); C10-2 300 ng/ml + 10 µM tau peptide as competitor.
For experiment [15] the target is unchanged. Put plainly: fluid phase inhibition of p-tau antigen capture in mC10-2 coated plate (comparison with PHF-13).
The target is the same in experiment [16]. Put plainly: MSD, AD-P3 coated plate (FIG. 34); C10-2 100 ng/ml + 10 µM tau peptide as competitor.
For experiment [17] the target is unchanged. The experiment can be described thus: MSD, AD-P3 coated plate (FIG. 34); C10-2 3 ng/ml + PBS/0.1% BSA (no competitor).
Experiment [18] has the same target. The experiment can be described thus: MSD, AD-P3 coated plate (FIG. 34); C10-2 100 ng/ml + PBS/0.1% BSA (no competitor).
The target is the same in experiment [19]. Put plainly: MSD, AD-P3 coated plate (FIG. 34); C10-2 30 ng/ml + PBS/0.1% BSA (no competitor).
The target in experiment [20] is hyperphosphorylated tau phosphorylated at serine 396 in human Alzheimer brain (extracts and sections) (human) (UniProt P10636). Put plainly: immunodepletion of Alzheimer brain extract; western blot; compared to hHel control antibody.
Experiment [21] has as its target pathological hyperphosphorylated tau from human Alzheimer's disease brain, sarkosyl-insoluble P3 fraction (human) (UniProt P10636). The experiment can be described thus: MSD, AD-P3 coated plate (FIG. 34); C10-2 1000 ng/ml + PBS/0.1% BSA (no competitor).
The target is the same in experiment [22]. The experiment can be described thus: fluid phase MSD ELISA: antibody mixed with AD P3 in solution, capture on C10-2 coated plates.
Experiment [23] concerns the target normal P301L mutant human 4R0N tau from rTg4510 mouse brain (55 kDa band) (human) (UniProt P10636). Put plainly: immunodepletion of rTg4510 brain extracts; western blot quantification (FIG. 14).
The target of experiment [24] is pathological hyperphosphorylated tau from human Alzheimer's disease brain, sarkosyl-insoluble P3 fraction (human) (UniProt P10636). The experiment can be described thus: fluid phase inhibition of p-tau antigen capture in mC10-2 coated plate.
The target is the same in experiment [25]. The experiment can be described thus: MSD, AD-P3 coated plate (FIG. 34); PHF 13 at '30000' (unit inferred) + PBS/0.1% BSA (no competitor).
For experiment [26] the target is unchanged. Put plainly: MSD, AD-P3 coated plate (FIG. 34); PHF 13 at '300000' (unit inferred) + PBS/0.1% BSA (no competitor).
Experiment [27] shares this target. The experiment can be described thus: MSD, AD-P3 coated plate (FIG. 34); PHF 13 at '10000' (unit inferred) + PBS/0.1% BSA (no competitor).
For experiment [28] the target is unchanged. The experiment can be described thus: MSD, AD-P3 coated plate (FIG. 34); PHF 13 at '30000' (unit inferred) + 10 µM tau peptide as competitor.
Experiment [29] has the same target. Put plainly: MSD, AD-P3 coated plate (FIG. 34); PHF 13 at '300000' (unit inferred) + 10 µM tau peptide as competitor.
For experiment [30] the target is unchanged. Put plainly: MSD, AD-P3 coated plate (FIG. 34); PHF 13 at '10000M' (unit not explained) + 10 µM tau peptide as competitor.
Experiment [31] shares this target. The experiment can be described thus: MSD, AD-P3 coated plate (FIG. 34); PHF 13 at '1000000' (unit inferred) + PBS/0.1% BSA (no competitor).
Experiment [32] shares this target. Put plainly: MSD, AD-P3 coated plate (FIG. 34); PHF 13 at '3000' (unit inferred) + 10 µM tau peptide as competitor.
The target is the same in experiment [33]. Put plainly: MSD, AD-P3 coated plate (FIG. 34); PHF 13 at '100000' (unit inferred) + PBS/0.1% BSA (no competitor).
For experiment [34] the target is unchanged. The experiment can be described thus: MSD, AD-P3 coated plate (FIG. 34); PHF 13 at '1000000' (unit inferred) + 10 µM tau peptide as competitor.
The target is the same in experiment [35]. The experiment can be described thus: MSD, AD-P3 coated plate (FIG. 34); PHF 13 at '3000' (unit inferred) + PBS/0.1% BSA (no competitor).
Experiment [36] has the same target. The experiment can be described thus: MSD, AD-P3 coated plate (FIG. 34); PHF 13 at '100000' (unit inferred) + 10 µM tau peptide as competitor.
The target is the same in experiment [37]. The experiment can be described thus: MSD, AD-P3 coated plate (FIG. 34); PHF 13 at '1000' (unit inferred) + PBS/0.1% BSA (no competitor).
The target is the same in experiment [38]. Put plainly: MSD, AD-P3 coated plate (FIG. 34); PHF 13 at '1000' (unit inferred) + 10 µM tau peptide as competitor.

Several values for one entry are separate records, joined by “and”; a condition that tells them apart may be missing. Equal values may be shown once.

Sequence of pathological hyperphosphorylated tau from human Alzheimer's disease brain, sarkosyl-insoluble P3 fraction (human) (P10636 other isoform, or with tags, fused parts or gaps limits assumed): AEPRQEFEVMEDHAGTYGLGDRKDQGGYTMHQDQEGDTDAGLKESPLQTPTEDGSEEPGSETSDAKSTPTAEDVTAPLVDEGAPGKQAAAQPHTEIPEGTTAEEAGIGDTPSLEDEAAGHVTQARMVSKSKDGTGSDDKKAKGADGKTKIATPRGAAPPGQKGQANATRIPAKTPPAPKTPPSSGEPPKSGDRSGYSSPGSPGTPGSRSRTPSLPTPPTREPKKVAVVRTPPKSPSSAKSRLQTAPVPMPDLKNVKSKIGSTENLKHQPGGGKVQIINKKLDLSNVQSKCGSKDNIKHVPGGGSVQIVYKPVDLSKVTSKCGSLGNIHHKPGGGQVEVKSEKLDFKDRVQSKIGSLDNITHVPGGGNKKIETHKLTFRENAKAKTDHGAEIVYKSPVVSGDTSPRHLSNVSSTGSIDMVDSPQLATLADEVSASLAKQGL
Sequence of hyperphosphorylated tau phosphorylated at serine 396 in human Alzheimer brain (extracts and sections) (human) (P10636 other isoform, or with tags, fused parts or gaps limits assumed): as above
Sequence of normal P301L mutant human 4R0N tau from rTg4510 mouse brain (55 kDa band) (human) (P10636 other isoform, or with tags, fused parts or gaps P301L P301L): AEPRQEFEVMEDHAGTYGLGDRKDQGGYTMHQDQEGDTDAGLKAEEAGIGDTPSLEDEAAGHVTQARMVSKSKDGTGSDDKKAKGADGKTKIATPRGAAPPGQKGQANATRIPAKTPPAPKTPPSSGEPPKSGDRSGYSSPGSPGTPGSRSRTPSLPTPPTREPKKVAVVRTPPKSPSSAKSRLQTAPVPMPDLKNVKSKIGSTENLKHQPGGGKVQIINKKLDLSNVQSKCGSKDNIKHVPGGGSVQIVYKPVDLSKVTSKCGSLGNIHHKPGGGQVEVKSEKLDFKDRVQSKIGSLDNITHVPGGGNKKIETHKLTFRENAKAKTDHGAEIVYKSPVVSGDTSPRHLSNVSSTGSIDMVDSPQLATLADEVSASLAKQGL

Consider Antibody C10-2 (murine), for which the mean Signal in [1] was determined as 30400 signal; in experiment [2], 451 signal; in [3], 366 signal; in [4], 870 signal; in experiment [8], 345 signal; in experiment [9], 383 signal. For the same substance, the mean Signal in experiment [11] stood at 5720 signal; in experiment [12], 51200 signal; in experiment [14], 407 signal; in [16] it was 357 signal; in [17], 1880 signal; in experiment [18], 21800 signal. For the same substance, the values for the mean Signal in [19] and in experiment [21] were 11900 signal and 38500 signal, respectively. Further, the signal is 30300 signal and 30500 signal in experiment [1]; 462 signal and 439 signal in experiment [2]; 384 signal and 348 signal in experiment [3]; 920 signal and 820 signal in experiment [4]; 384 signal and 306 signal in [8]; 398 signal and 367 signal in [9]. Besides, the signal in [11] was 5860 signal and 5580 signal; in experiment [12], 51300 signal and 51100 signal; in [14] it was 434 signal and 379 signal; in experiment [16], 401 signal and 313 signal; in experiment [17] it was 1890 signal and 1870 signal; in [18], 21900 signal and 21700 signal. For the same substance, the signal was 12000 signal and 11800 signal in experiment [19]; 38200 signal and 38800 signal in [21]. Moreover, the percent removed by immunodepletion is 90% in [5] and 93% in experiment [20]. For the same substance, the IC50 in experiment [6] was 320 nM; in experiment [7] it was 3 nM; in [10] it was 10 to 20 nM; in experiment [15], 10 to 20 nM; in experiment [22] it was 3 nM. For the same substance, in [13], the AD/ctrl is more than 100 fold.
The substance “Tau5 (commercial total Tau antibody, Invitrogen)” registered a percent reduction of the 55 kDa band in [23] of 74%.
As for “PHF13 (commercially available antibody for Tau phosphorylated at Ser 396)”, in [24], the IC50 lay in the range of 500 to 1000 nM. Further, the mean Signal came to 1580 signal in experiment [25]; 560 signal in experiment [26]; 2880 signal in [27]; 481 signal in experiment [28]; 299 signal in experiment [29]; 953 signal in experiment [30]. For the same substance, the mean Signal was 335 signal in experiment [31]; 2180 signal in [32]; 852 signal in experiment [33]; 280 signal in experiment [34]; 5790 signal in experiment [35]; 355 signal in experiment [36]. Further, the mean Signal stood at 12600 signal in experiment [37] and 6900 signal in experiment [38]. For the same substance, the signal in [25] is 1660 signal and 1500 signal; in experiment [26], 568 signal and 551 signal; in experiment [27], 2900 signal and 2860 signal; in [28], 472 signal and 490 signal; in [29] it was 305 signal and 292 signal; in experiment [30], 1020 signal and 886 signal. For the same substance, the signal in experiment [31] is 358 signal and 312 signal; in [32] it was 2280 signal and 2080 signal; in experiment [33], 856 signal and 847 signal; in experiment [34], 284 signal and 276 signal; in [35], 6130 signal and 5460 signal; in [36] it was 370 signal and 340 signal. Moreover, the signal is 13700 signal and 11600 signal in experiment [37]; 7540 signal and 6250 signal in experiment [38].
